The sequences below were run on Escherichia coli TOP10 (assay: shrunken log2 fold change of peptide-encoding DNA abundance (4.5 h post-induction vs induction); higher = less antimicrobial activity (less host growth inhibition)). Details: time post-induction: 4.5 h; library: site-saturation at positions 5, 18, 19, 20.
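Further: peptides expressed intracellularly from a pBAD plasmid library in pooled LB shake-flask culture, induced with 0.3% L-arabinose, DNA abundance read by NGS, three biological replicates, DESeq2 with apeglm shrinkage.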

| Sequence | shrunken log2 fold change |
| --- | --- |
| RRIRIRPPRLPRPRPRPFTCPRP | 0.0493 |
| RRIRIRPPRLPRPRPRPFTTPRP | -0.509 |
| RRIRIRPPRLPRPRPRPFVSPRP | -0.571 |
| RRIRIRPPRLPRPRPRPFVTPRP | -0.938 |
| RRIRIRPPRLPRPRPRPFWSPRP | 0.0627 |
| RRIRIRPPRLPRPRPRPFYEPRP | -0.231 |
| RRIRIRPPRLPRPRPRPGAGPRP | 0.29 |
| RRIRIRPPRLPRPRPRPGAVPRP | 0.28 |
| RRIRIRPPRLPRPRPRPGCKPRP | -0.0374 |
| RRIRIRPPRLPRPRPRPGDDPRP | 0.136 |
| RRIRIRPPRLPRPRPRPGDNPRP | -0.317 |
| RRIRIRPPRLPRPRPRPGDPPRP | -0.0811 |
| RRIRIRPPRLPRPRPRPGFWPRP | 0.0561 |
| RRIRIRPPRLPRPRPRPGGCPRP | 0.0544 |
| RRIRIRPPRLPRPRPRPGGYPRP | -0.16 |
| RRIRIRPPRLPRPRPRPGHEPRP | 0.018 |
| RRIRIRPPRLPRPRPRPGHKPRP | -0.363 |
| RRIRIRPPRLPRPRPRPGKHPRP | -0.222 |
| RRIRIRPPRLPRPRPRPGLFPRP | -0.0275 |
| RRIRIRPPRLPRPRPRPGQCPRP | -0.13 |
| RRIRIRPPRLPRPRPRPGQRPRP | -0.0709 |
| RRIRIRPPRLPRPRPRPGRGPRP | 0.268 |
| RRIRIRPPRLPRPRPRPGTKPRP | -0.0997 |
| RRIRIRPPRLPRPRPRPGVQPRP | -0.00174 |
| RRIRIRPPRLPRPRPRPGWLPRP | -0.0831 |

| Sequence | shrunken log2 fold change |
| --- | --- |
| RRIRIRPPRLPRPRPRPGWTPRP | 0.11 |
| RRIRIRPPRLPRPRPRPGYCPRP | -0.371 |
| RRIRIRPPRLPRPRPRPGYFPRP | -0.904 |
| RRIRIRPPRLPRPRPRPGYKPRP | -0.231 |
| RRIRIRPPRLPRPRPRPHACPRP | -1.14 |
| RRIRIRPPRLPRPRPRPHARPRP | 3.76 |
| RRIRIRPPRLPRPRPRPHDCPRP | -0.123 |
| RRIRIRPPRLPRPRPRPHDPPRP | -0.296 |
| RRIRIRPPRLPRPRPRPHEYPRP | 0.0332 |
| RRIRIRPPRLPRPRPRPHFAPRP | -0.135 |
| RRIRIRPPRLPRPRPRPHFRPRP | -0.555 |
| RRIRIRPPRLPRPRPRPHGAPRP | -0.0865 |
| RRIRIRPPRLPRPRPRPHGFPRP | -0.383 |
| RRIRIRPPRLPRPRPRPHGPPRP | 0.0659 |
| RRIRIRPPRLPRPRPRPHGYPRP | -0.714 |
| RRIRIRPPRLPRPRPRPHHEPRP | -0.0701 |
| RRIRIRPPRLPRPRPRPHHGPRP | -0.0784 |
| RRIRIRPPRLPRPRPRPHHIPRP | -0.641 |
| RRIRIRPPRLPRPRPRPHIPPRP | -0.482 |
| RRIRIRPPRLPRPRPRPHKCPRP | -0.639 |
| RRIRIRPPRLPRPRPRPHLNPRP | -0.852 |
| RRIRIRPPRLPRPRPRPHNFPRP | -0.0684 |
| RRIRIRPPRLPRPRPRPHNHPRP | -0.93 |
| RRIRIRPPRLPRPRPRPHNKPRP | -0.976 |
| RRIRIRPPRLPRPRPRPHPYPRP | -0.0313 |

| Sequence | shrunken log2 fold change |
| --- | --- |
| RRIRIRPPRLPRPRPRPHSYPRP | -0.244 |
| RRIRIRPPRLPRPRPRPHTYPRP | -0.715 |
| RRIRIRPPRLPRPRPRPHVGPRP | -0.0138 |
| RRIRIRPPRLPRPRPRPHVNPRP | 2.48 |
| RRIRIRPPRLPRPRPRPHWCPRP | 0.164 |
| RRIRIRPPRLPRPRPRPIAYPRP | -0.32 |
| RRIRIRPPRLPRPRPRPIFEPRP | -0.0533 |
| RRIRIRPPRLPRPRPRPIGPPRP | 0.0815 |
| RRIRIRPPRLPRPRPRPIGSPRP | -0.0175 |
| RRIRIRPPRLPRPRPRPIHPPRP | -0.208 |
| RRIRIRPPRLPRPRPRPIIDPRP | -0.372 |
| RRIRIRPPRLPRPRPRPIITPRP | -0.625 |
| RRIRIRPPRLPRPRPRPIKFPRP | -0.933 |
| RRIRIRPPRLPRPRPRPIKYPRP | -2.06 |
| RRIRIRPPRLPRPRPRPILNPRP | -0.73 |
| RRIRIRPPRLPRPRPRPINPPRP | -0.362 |
| RRIRIRPPRLPRPRPRPIRAPRP | -0.634 |
| RRIRIRPPRLPRPRPRPIRVPRP | -0.0611 |
| RRIRIRPPRLPRPRPRPISDPRP | -0.0354 |
| RRIRIRPPRLPRPRPRPIYMPRP | 0.00602 |
| RRIRIRPPRLPRPRPRPKAHPRP | -0.242 |
| RRIRIRPPRLPRPRPRPKCFPRP | -0.852 |
| RRIRIRPPRLPRPRPRPKCSPRP | 0.0422 |
| RRIRIRPPRLPRPRPRPKDAPRP | 0.176 |
| RRIRIRPPRLPRPRPRPKDEPRP | -0.00382 |

| Sequence | shrunken log2 fold change |
| --- | --- |
| RRIRIRPPRLPRPRPRPKDNPRP | -0.606 |
| RRIRIRPPRLPRPRPRPKESPRP | -0.258 |
| RRIRIRPPRLPRPRPRPKFIPRP | -0.375 |
| RRIRIRPPRLPRPRPRPKFKPRP | -0.0251 |
| RRIRIRPPRLPRPRPRPKFYPRP | -0.713 |
| RRIRIRPPRLPRPRPRPKHEPRP | 0.0924 |
| RRIRIRPPRLPRPRPRPKHRPRP | -0.103 |
| RRIRIRPPRLPRPRPRPKIAPRP | 0.00729 |
| RRIRIRPPRLPRPRPRPKIDPRP | -0.573 |
| RRIRIRPPRLPRPRPRPKKIPRP | -0.526 |
| RRIRIRPPRLPRPRPRPKLDPRP | -0.106 |
| RRIRIRPPRLPRPRPRPKLMPRP | -0.171 |
| RRIRIRPPRLPRPRPRPKLSPRP | 0.144 |
| RRIRIRPPRLPRPRPRPKMNPRP | -0.954 |
| RRIRIRPPRLPRPRPRPKQCPRP | -0.178 |
| RRIRIRPPRLPRPRPRPKQWPRP | -0.0255 |
| RRIRIRPPRLPRPRPRPKRHPRP | -0.0187 |
| RRIRIRPPRLPRPRPRPKSLPRP | 0.0615 |
| RRIRIRPPRLPRPRPRPKSYPRP | -0.605 |
| RRIRIRPPRLPRPRPRPKTTPRP | -0.301 |
| RRIRIRPPRLPRPRPRPKWHPRP | -0.27 |
| RRIRIRPPRLPRPRPRPKWNPRP | -0.454 |
| RRIRIRPPRLPRPRPRPKYCPRP | 0.00104 |
| RRIRIRPPRLPRPRPRPKYTPRP | -0.686 |
| RRIRIRPPRLPRPRPRPLANPRP | -0.145 |

| Sequence | shrunken log2 fold change |
| --- | --- |
| RRIRIRPPRLPRPRPRPLAPPRP | 0.157 |
| RRIRIRPPRLPRPRPRPLCHPRP | -0.626 |
| RRIRIRPPRLPRPRPRPLHIPRP | -1.21 |
| RRIRIRPPRLPRPRPRPLHNPRP | -0.563 |
| RRIRIRPPRLPRPRPRPLITPRP | -0.71 |
| RRIRIRPPRLPRPRPRPLKCPRP | 0.0563 |
| RRIRIRPPRLPRPRPRPLLGPRP | -0.175 |
| RRIRIRPPRLPRPRPRPLLPPRP | -0.0454 |
| RRIRIRPPRLPRPRPRPLMFPRP | -0.617 |
| RRIRIRPPRLPRPRPRPLNLPRP | -0.597 |
| RRIRIRPPRLPRPRPRPLNNPRP | -1.15 |
| RRIRIRPPRLPRPRPRPLWCPRP | -0.067 |
| RRIRIRPPRLPRPRPRPLYCPRP | -0.744 |
| RRIRIRPPRLPRPRPRPLYDPRP | -1.02 |
| RRIRIRPPRLPRPRPRPLYHPRP | -0.761 |
| RRIRIRPPRLPRPRPRPLYQPRP | -0.904 |
| RRIRIRPPRLPRPRPRPMCMPRP | -0.216 |
| RRIRIRPPRLPRPRPRPMGAPRP | -0.341 |
| RRIRIRPPRLPRPRPRPMGYPRP | -0.148 |
| RRIRIRPPRLPRPRPRPMHHPRP | -0.4 |
| RRIRIRPPRLPRPRPRPMIGPRP | -0.477 |
| RRIRIRPPRLPRPRPRPMKNPRP | -0.359 |
| RRIRIRPPRLPRPRPRPMLHPRP | -0.749 |
| RRIRIRPPRLPRPRPRPMMMPRP | -0.227 |
| RRIRIRPPRLPRPRPRPMMRPRP | 0.116 |

| Sequence | shrunken log2 fold change |
| --- | --- |
| RRIRIRPPRLPRPRPRPMPLPRP | 0.124 |
| RRIRIRPPRLPRPRPRPMSFPRP | -0.178 |
| RRIRIRPPRLPRPRPRPMTGPRP | -0.4 |
| RRIRIRPPRLPRPRPRPMTLPRP | 0.0505 |
| RRIRIRPPRLPRPRPRPMVVPRP | -0.0948 |
| RRIRIRPPRLPRPRPRPMWSPRP | 0.045 |
| RRIRIRPPRLPRPRPRPMYKPRP | -1.13 |
| RRIRIRPPRLPRPRPRPMYNPRP | -0.429 |
| RRIRIRPPRLPRPRPRPMYQPRP | -0.862 |
| RRIRIRPPRLPRPRPRPNDIPRP | -1.11 |
| RRIRIRPPRLPRPRPRPNDVPRP | -0.0102 |
| RRIRIRPPRLPRPRPRPNEWPRP | -0.00088 |
| RRIRIRPPRLPRPRPRPNFQPRP | -0.417 |
| RRIRIRPPRLPRPRPRPNFYPRP | -0.565 |
| RRIRIRPPRLPRPRPRPNGQPRP | -0.0848 |
| RRIRIRPPRLPRPRPRPNHKPRP | -0.857 |
| RRIRIRPPRLPRPRPRPNHTPRP | -0.541 |
| RRIRIRPPRLPRPRPRPNIGPRP | -0.358 |
| RRIRIRPPRLPRPRPRPNKAPRP | 0.0028 |
| RRIRIRPPRLPRPRPRPNKTPRP | -0.125 |
| RRIRIRPPRLPRPRPRPNLRPRP | -0.117 |
| RRIRIRPPRLPRPRPRPNLSPRP | -0.0917 |
| RRIRIRPPRLPRPRPRPNMAPRP | -0.344 |
| RRIRIRPPRLPRPRPRPNNCPRP | -0.0753 |
| RRIRIRPPRLPRPRPRPNNGPRP | -0.589 |

— the supplement of paper PMC9112550, “Optimization of the antimicrobial peptide Bac7 by deep mutational scanning” (BMC Biology, 2022)
